Reference: the supplement of paper PMC10724198
± gives the standard deviation of the averaged measurements.

Test system: Saccharomyces cerevisiae
Test: protein stability index of tFT-peptide fusion (C-terminal peptide) (PSI (0-1 scale)); higher = more stable (slower turnover)
Conditions: temperature: 30 C
Experimental: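 MPS profiling in S. cerevisiae of the yeast C-terminome library: the last 12 aa of each annotated ORF are fused to the C-terminus of a sfGFP-mCherry timer, after a GGGS linker. Cells are FACS-sorted into 8 mCherry/sfGFP bins and deep-sequenced. PSI runs from 0 (unstable) to 1 (stable); wild type and das1Δ backgrounds, two technical replicates each.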

[1] = genetic background: das1 deletion

| Sequence | protein stability index [1] | protein stability index (genetic background: wild type) |
| --- | --- | --- |
| FHHTSKTFAFAD [YGR219W C-terminal 12 aa] | 0.696 ± 0.022 | 0.674 ± 0.0088 |
| NYLFKLMGPSSD [VTC2 C-terminal 12 aa] | 0.687 ± 0.032 | 0.655 ± 0.008 |
| LSDSHYELNAES [PMT5 C-terminal 12 aa] | 0.712 ± 0.033 | 0.706 ± 0.044 |
| DLVAQQVVQDGH [MYO2 C-terminal 12 aa] | 0.7005 ± 0.0019 | 0.707 ± 0.019 |
| DAVAEEVKKILA [LEU2 C-terminal 12 aa] | 0.689 ± 0.018 | 0.68 ± 0.0084 |
| TFVDDKLKELPQ [PTP3 C-terminal 12 aa] | 0.719 ± 0.042 | 0.655 ± 0.0034 |
| MKFNVISFLFHK [NAM2 C-terminal 12 aa] | 0.688 ± 0.011 | 0.615 ± 0.011 |
| VWLAAALPLAFI [PRM7 C-terminal 12 aa] | 0.58 ± 0.0063 | 0.56 ± 0.018 |
| YLKLRGANFVLK [IES6 C-terminal 12 aa] | 0.695 ± 0.013 | 0.684 ± 0.011 |
| GTLESFFKRKAK [POL32 C-terminal 12 aa] | 0.732 ± 0.015 | 0.707 ± 0.03 |
| KEMWITGKIVED [IML1 C-terminal 12 aa] | 0.672 ± 0.021 | 0.6639 ± 0.0055 |
| NQKNEDLSDIKL [UTP30 C-terminal 12 aa] | 0.658 ± 0.019 | 0.755 ± 0.13 |
| YLIAVTNLVERE [PPT2 C-terminal 12 aa] | 0.682 ± 0.045 | 0.723 ± 0.086 |
| EEQINGKRKRKD [YJR107C-A C-terminal 12 aa] | 0.672 ± 0.0096 | 0.674 ± 0.022 |
| RKYPNQCGTISN [EXG1 C-terminal 12 aa] | 0.712 ± 0.011 | 0.674 ± 0.03 |
| IYKEKYMKQGPK [DSF2 C-terminal 12 aa] | 0.701 ± 0.071 | 0.701 ± 0.084 |
| KMVLSHMKEKKD [YGL140C C-terminal 12 aa] | 0.688 ± 0.011 | 0.682 ± 0.017 |
| KREKTMRNSMLP [YIR036W-A C-terminal 12 aa] | 0.684 ± 0.0091 | 0.736 ± 0.076 |
| KSADPDAMDTTE [RVB2 C-terminal 12 aa] | 0.702 ± 0.016 | 0.695 ± 0.021 |
| VKKCWEKEKDGI [MKK2 C-terminal 12 aa] | 0.675 ± 0.018 | 0.663 ± 0.026 |
| DLLNKESEYLNI [FAR11 C-terminal 12 aa] | 0.705 ± 0.012 | 0.755 ± 0.061 |

| Sequence | protein stability index [1] | protein stability index (genetic background: wild type) |
| --- | --- | --- |
| YSISISLHTPCV [YHR049C-A C-terminal 12 aa] | 0.66 ± 0.013 | 0.632 ± 0.02 |
| KPRKKAKALPKT [RTT109 C-terminal 12 aa] | 0.689 ± 0.032 | 0.737 ± 0.014 |
| RIELSKYYNTNL [YPD1 C-terminal 12 aa] | 0.6986 ± 0.0043 | 0.716 ± 0.059 |
| GEYYNLIVPSLD [YGK3 C-terminal 12 aa] | 0.7209 ± 0.0012 | 0.698 ± 0.014 |
| HCGARLTVIPKK [YER137C C-terminal 12 aa] | 0.693 ± 0.016 | 0.688 ± 0.028 |
| ADETVDFYVYDE [SWD2 C-terminal 12 aa] | 0.744 ± 0.027 | 0.698 ± 0.06 |
| DCLEGMLELEKL [DSS1 C-terminal 12 aa] | 0.698 ± 0.025 | 0.677 ± 0.041 |
| INKASVKFFFFA [YJL119C C-terminal 12 aa] | 0.637 ± 0.0095 | 0.227 ± 0.0039 |
| QYDYELIQVQCS [PPN2 C-terminal 12 aa] | 0.431 ± 0.043 | 0.51 ± 0.032 |
| TSSTPLVIVDSK [HXT10 C-terminal 12 aa] | 0.672 ± 0.013 | 0.713 ± 0.064 |
| WRQEYPGVDEFF [PRM8 C-terminal 12 aa] | 0.742 ± 0.0099 | 0.748 ± 0.045 |
| KRSLTLPVGMKI [AIM44 C-terminal 12 aa] | 0.683 ± 0.026 | 0.658 ± 0.02 |
| NCANCVYFSSRG [YDL221W C-terminal 12 aa] | 0.7169 ± 0.0029 | 0.716 ± 0.043 |
| TADIVYIDSELD [SPE1 C-terminal 12 aa] | 0.6746 ± 0.0022 | 0.694 ± 0.083 |
| KSEIDTLKQDQK [TYE7 C-terminal 12 aa] | 0.656 ± 0.011 | 0.6659 ± 0.0018 |
| LPSPRFFSPITL [YER158W-A C-terminal 12 aa] | 0.685 ± 0.024 | 0.702 ± 0.008 |
| GEDPYADLFRDF [TPK1 C-terminal 12 aa] | 0.731 ± 0.0078 | 0.6846 ± 0.0053 |
| LNFYNDNFGSQF [STP1 C-terminal 12 aa] | 0.723 ± 0.0098 | 0.71 ± 0.048 |
| KKQKVVPLPTDI [SMM1 C-terminal 12 aa] | 0.6919 ± 0.0007 | 0.654 ± 0.015 |
| FSSEYLLVHVQQ [YLR458W C-terminal 12 aa] | 0.662 ± 0.011 | 0.654 ± 0.036 |
| ERDNWWVVAQKR [TRM9 C-terminal 12 aa] | 0.744 ± 0.023 | 0.723 ± 0.012 |

| Sequence | protein stability index [1] | protein stability index (genetic background: wild type) |
| --- | --- | --- |
| KDNNISSYGSII [YPL162C C-terminal 12 aa] | 0.693 ± 0.037 | 0.668 ± 0.011 |
| CSGMKPISELQQ [RSM28 C-terminal 12 aa] | 0.695 ± 0.015 | 0.682 ± 0.017 |
| KNSGEKLVAVLN [YCR102C C-terminal 12 aa] | 0.6723 ± 0.001 | 0.666 ± 0.025 |
| YLYVFLQQARLE [YBR032W C-terminal 12 aa] | 0.51 ± 0.029 | 0.473 ± 0.018 |
| VWSLYSRTALET [OAR1 C-terminal 12 aa] | 0.6176 ± 0.004 | 0.608 ± 0.012 |
| ATAKEWTKKYAV [UBC5 C-terminal 12 aa] | 0.7 ± 0.018 | 0.729 ± 0.045 |
| KALNEIFMITND [PXR1 C-terminal 12 aa] | 0.723 ± 0.013 | 0.763 ± 0.033 |
| GILCSLMEFFTN [TDA6 C-terminal 12 aa] | 0.727 ± 0.053 | 0.712 ± 0.059 |
| SVTAGYLPDLWR [YCH1 C-terminal 12 aa] | 0.73 ± 0.0093 | 0.728 ± 0.036 |
| MLGVGSLLFLAF [ROT1 C-terminal 12 aa] | 0.698 ± 0.03 | 0.691 ± 0.026 |
| ILIRKKLKAENI [OPY1 C-terminal 12 aa] | 0.677 ± 0.021 | 0.646 ± 0.053 |
| NQTSFSRDRLRR [RRD1 C-terminal 12 aa] | 0.702 ± 0.013 | 0.722 ± 0.066 |
| RDNQIPDKEIGI [CAF16 C-terminal 12 aa] | 0.6731 ± 0.0026 | 0.704 ± 0.072 |
| LEDHTPPEDKPN [QCR10 C-terminal 12 aa] | 0.718 ± 0.021 | 0.695 ± 0.0076 |
| QLINGRKIIAGN [MOT2 C-terminal 12 aa] | 0.6718 ± 0.0014 | 0.7 ± 0.09 |
| GVRRSVRLNNRV [MCM4 C-terminal 12 aa] | 0.699 ± 0.019 | 0.681 ± 0.015 |
| VVKRKKVKTKRI [JJJ1 C-terminal 12 aa] | 0.689 ± 0.041 | 0.748 ± 0.14 |
| TQQVVDDVLSRL [LYS12 C-terminal 12 aa] | 0.738 ± 0.0082 | 0.732 ± 0.038 |
| AVSVPRISSPMH [ICS3 C-terminal 12 aa] | 0.7029 ± 0.0038 | 0.73 ± 0.028 |
| PISHVNNNDTHA [SLM3 C-terminal 12 aa] | 0.727 ± 0.014 | 0.688 ± 0.0079 |
| HIDIPDFAKWDI [SUL2 C-terminal 12 aa] | 0.727 ± 0.013 | 0.719 ± 0.009 |

| Sequence | protein stability index [1] | protein stability index (genetic background: wild type) |
| --- | --- | --- |
| DLRCLKYKYKNA [YGR016W C-terminal 12 aa] | 0.695 ± 0.011 | 0.348 ± 0.028 |
| TTIKNIDILNRT [SMC4 C-terminal 12 aa] | 0.717 ± 0.024 | 0.694 ± 0.048 |
| FDYDFLFGNDFA [OAF1 C-terminal 12 aa] | 0.791 ± 0.006 | 0.75 ± 0.052 |
| FLWEMFELKLYL [YMR119W-A C-terminal 12 aa] | 0.7071 ± 0.0016 | 0.71 ± 0.036 |
| LCPVFFTWTNLR [YSR3 C-terminal 12 aa] | 0.656 ± 0.008 | 0.656 ± 0.034 |
| HPFLLWQGQVFF [YCR022C C-terminal 12 aa] | 0.729 ± 0.012 | 0.6995 ± 0.0021 |
| RRAAESGKLKME [YNL108C C-terminal 12 aa] | 0.693 ± 0.029 | 0.698 ± 0.067 |
| GIILRSCWNPRQ [YOL159C-A C-terminal 12 aa] | 0.721 ± 0.019 | 0.69 ± 0.0087 |
| EDNDYELIFMNV [PML1 C-terminal 12 aa] | 0.7194 ± 0.0068 | 0.712 ± 0.019 |
| DMMMLFGAEGDE [TAF7 C-terminal 12 aa] | 0.72102 ± 0.00011 | 0.707 ± 0.027 |
| YGISSSVLKGST [PHO87 C-terminal 12 aa] | 0.7153 ± 0.0032 | 0.676 ± 0.009 |
| VHKLGWSLSFDA [POR1 C-terminal 12 aa] | 0.706 ± 0.022 | 0.6642 ± 0.0033 |
| AIDTLLKMSSSD [SRL3 C-terminal 12 aa] | 0.703 ± 0.03 | 0.674 ± 0.051 |
| ESFEKQGKIIYN [MOB2 C-terminal 12 aa] | 0.681 ± 0.0097 | 0.685 ± 0.042 |
| QVSLLLGFSSRS [MRX20 C-terminal 12 aa] | 0.698 ± 0.0012 | 0.7 ± 0.011 |
| FKQKYDADVLDK [RPL11A C-terminal 12 aa] | 0.6902 ± 0.0043 | 0.735 ± 0.047 |
| TPLGPKPDIRPP [GTO3 C-terminal 12 aa] | 0.712 ± 0.013 | 0.693 ± 0.017 |
| LKAVCPPDAGFA [YOR387C C-terminal 12 aa] | 0.7086 ± 0.0046 | 0.7462 ± 0.0071 |
| IKIRIYSPRSIS [YDL240C-A C-terminal 12 aa] | 0.715 ± 0.017 | 0.519 ± 0.021 |
